Substitutions are numbered along the chain they refer to.
Target: T1, IL1RL2 over-expressed on Expi293 cells (UniProt Q9HB29 20-575, limits assumed)
T1 construct: whole, on cells; Target of the flow cytometry assay; MFI ratio is over-expressing cells over parent cells
T1 sequence (looked up): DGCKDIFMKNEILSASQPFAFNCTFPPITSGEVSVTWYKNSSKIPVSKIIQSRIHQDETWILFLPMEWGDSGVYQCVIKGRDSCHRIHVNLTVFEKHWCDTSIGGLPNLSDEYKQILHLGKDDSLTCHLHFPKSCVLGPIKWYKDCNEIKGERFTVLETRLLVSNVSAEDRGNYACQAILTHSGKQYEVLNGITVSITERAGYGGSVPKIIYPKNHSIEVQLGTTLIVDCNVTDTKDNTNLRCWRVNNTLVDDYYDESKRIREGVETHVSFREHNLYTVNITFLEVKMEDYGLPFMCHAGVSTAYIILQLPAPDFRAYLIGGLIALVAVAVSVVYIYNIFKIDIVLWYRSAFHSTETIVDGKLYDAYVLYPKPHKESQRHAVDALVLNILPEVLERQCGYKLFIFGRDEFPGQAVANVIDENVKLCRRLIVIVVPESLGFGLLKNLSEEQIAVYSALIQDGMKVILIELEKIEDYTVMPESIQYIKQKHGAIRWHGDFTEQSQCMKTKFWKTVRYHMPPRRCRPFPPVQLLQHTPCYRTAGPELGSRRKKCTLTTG
Assay: flow cytometry, over-expressing Expi293 vs parent cells, 100 nM antibody;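 further: ratio is mean fluorescence intensity on over-expressing Expi293 cells divided by that measured on parental Expi293 cells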
Protocol: All incubations and washes were in buffer containing PBS+1% BSA. MFI Ratio is defined by the mean fluorescence intensity (MFI) of the cytokine over-expressing Expi293 cell over the Expi293 parent cell. […] EC50 was calculated in GraphPad Prism.

B1: IL1RL2-170 (antibody, V domains shown)
VH: EVQLLESGGGLVQPGGSLRLSCAASGFTFPVYNMAWVRQAPGKGLEWVSSISGYGSTTYYADSVKGRFTISRDNSKNTLYLQMNSLRAEDTAVYYCAKSYGAFDYWGQGTLVTVSS
VL: DIQMTQSPSSLSASVGDRVTITCSASQDINKYLNWYQQKPGKAPKLLIYHTSRLQDGVPSRFSGSGSGTDFTLTISSLQPEDFATYYCQQSYTTPWTFGQGTKVEIK
notes: IgG2
100 nM FACS (MFI Ratio): 3.95

B2: IL1RL2-181 (antibody, V domains shown)
VH: EVQLLESGGGLVQPGGSLRLSCAASGFTFGQESMYWVRQAPGKGLEWVSGITRSGSTNYRDSVKGRFTISRDNSKNTLYLQMNSLRAEDTAVYYCAKQLGEEFDYWGQGTLVTVSS
VL: DIQMTQSPSSLSASVGDRVTITCTGDKLAEKYVSWYQQKPGKAPKLLIYAKNNRPSGVPSRFSGSGSGTDFTLTISSLQPEDFATYYCQQWSSNPLTFGQGTKVEIK
notes: IgG2
100 nM FACS (MFI Ratio): 1.02

B3: IL1RL2-42 (VHH)
VHH: EVQLVESGGGLVQPGGSLRLSCAASGRTFSSYDMGWFRQAPGKEREFVAAIVWIGGRTYYADSVKGRFTISADNSKNTAYLQMNSLKPEDTAVYYCADVNGDWGQGTLVTVSS
notes: VHH-Fc based on IgG2 Fc
100 nM FACS (MFI Ratio): 2.47

B4: IL1RL2-48 (VHH)
VHH: B3 VHH with F47L, V52T, I54N, G55S, R57S, Y59L
notes: VHH-Fc based on IgG2 Fc
100 nM FACS (MFI Ratio): 7.83

B5: IL1RL2-56 (VHH)
VHH: B3 VHH with S31T, V52S, I54G, R57L, Y59V
notes: VHH-Fc based on IgG2 Fc
100 nM FACS (MFI Ratio): 3.83

B6: IL1RL2-44 (VHH)
VHH: B3 VHH with T28S, S31T, F47L, V52S, I54S, R57S
notes: VHH-Fc based on IgG2 Fc
100 nM FACS (MFI Ratio): 0.95

B7: IL1RL2-156 (antibody, V domains shown)
VH: EVQLLESGGGLVQPGGSLRLSCAASGFTFSSYWNHWVRQAPGKGLEWVSTIGPSGTSTYYADSVKGRFTISRDNSKNTLYLQMNSLRAEDTAVYYCAKSTPNIPLAYWGQGTLVTVSS
VL: DIQMTQSPSSLSASVGDRVTITCRASQSIRRYLNWYQQKPGKAPKLLIYDASSSQSGVPSRFSGSGSGTDFTLTISSLQPEDFATYYCQQSTILPLTFGQGTKVEIK
notes: IgG2
100 nM FACS (MFI Ratio): 0.69

B8: IL1RL2-173 (antibody, V domains shown)
VH: EVQLLESGGGLVQPGGSLRLSCAASGFTFSEYGMWWVRQAPGKGLEWVSEISPSGGYTYYADSVKGRFTISRDNSKNTLYLQMNSLRAEDTAVYYCAEQDVKGSSSFDYWGQGTLVTVSS
VL: DIQMTQSPSSLSASVGDRVTITCRPNQNIATYINWYQQKPGKAPKLLIYQMSHLASGVPSRFSGSGSGTDFTLTISSLQPEDFATYYCQQSYSTPSFGQGTKVEIK
notes: IgG2
100 nM FACS (MFI Ratio): 11.2

B9: IL1RL2-176 (antibody, V domains shown)
VH: EVQLLESGGGLVQPGGSLRLSCAASGFTFSNSYISWVRQAPGKGLEWVSSIRGSSSSTYYADSVKGRFTISRDNSKNTLYLQMNSLRAEDTAVYYCARSYGGGFDYWGQGTLVTVSS
VL: DIQMTQSPSSLSASVGDRVTITCSGDNLRGYYASWYQQKPGKAPKLLIYQNDKRPSGVPSRFSGSGSGTDFTLTISSLQPEDFATYYCFQGSHAPLTFGQGTKVEIK
notes: IgG2
100 nM FACS (MFI Ratio): 0.72

B10: IL1RL2-52 (VHH)
VHH: EVQLVESGGGLVQPGGSLRLSCAASGRTSTYDMGWFRQAPGKEREFVGAISWSGGLTSYADSVKGRFTISADNSKNTAYLQMNSLKPEDTAVYYCADVNGDWGQGTLVTVSS
notes: VHH-Fc based on IgG2 Fc
100 nM FACS (MFI Ratio): 6.88

B11: IL1RL2-46 (VHH)
VHH: EVQLVESGGGLVQPGGSLRLSCAASGFTLGDYVMGWFRQAPGKEREFVATIRWGTTDTYYADSVKGRFTISADNSKNTAYLQMNSLKPEDTAVYYCQSWYYDILTGYSDYYYMDVWGQGTLVTVSS
notes: VHH-Fc based on IgG2 Fc
100 nM FACS (MFI Ratio): 15.6

B12: IL1RL2-167 (antibody, V domains shown)
VH: EVQLLESGGGLVQPGGSLRLSCAASGFTFSNYGVSWVRQAPGKGLEWVSGITRSGSTNYRDSVKGRFTISRDNSKNTLYLQMNSLRAEDTAVYYCAKGRRIFDYWGQGTLVTVSS
VL: DIQMTQSPSSLSASVGDRVTITCSGDKLGHTYTSWYQQKPGKAPKLLIYGKKNRPSGVPSRFSGSGSGTDFTLTISSLQPEDFATYYCQQSYSTPGITFGQGTKVEIK
notes: IgG2
100 nM FACS (MFI Ratio): 3.08

B13: IL1RL2-162 (antibody, V domains shown)
VH: EVQLLESGGGLVQPGGSLRLSCAASGFTFNHYGMGWVRQAPGKGLEWVSSIGANGAPTYYADSVKGRFTISRDNSKNTLYLQMNSLRAEDTAVYYCAKSYLSGTFDYWGQGTLVTVSS
VL: DIQMTQSPSSLSASVGDRVTITCQGGSPRSYYASWYQQKPGKAPKLLIYHTSRLQDGVPSRFSGSGSGTDFTLTISSLQPEDFATYYCQSYDKSNVVFGQGTKVEIK
notes: IgG2
100 nM FACS (MFI Ratio): 4.26

B14: IL1RL2-53 (VHH)
VHH: EVQLVESGGGLVQPGGSLRLSCAASGSTFSPNVMGWFRQAPGKEREFVAAITWSGSSTTEYADSVKGRFTISADNSKNTAYLQMNSLKPEDTAVYYCAAANEYWVYVNPNRYTWGQGTLVTVSS
notes: VHH-Fc based on IgG2 Fc
100 nM FACS (MFI Ratio): 4.14

B15: IL1RL2-38 (VHH)
VHH: EVQLVESGGGLVQPGGSLRLSCAASGRSRYGMGWFRQAPGKEREFVAAINWNGASTYYADSVKGRFTISADNSKNTAYLQMNSLKPEDTAVYYCAVSQPLNYYTYYDARRYDWGQGTLVTVSS
notes: VHH-Fc based on IgG2 Fc
100 nM FACS (MFI Ratio): 7.41

B16: IL1RL2-47 (VHH)
VHH: EVQLVESGGGLVQPGGSLRLSCAASGGTFSNYAMGWFRQAPGKEREFVAAIGGVTDYADSVKGRFTISADNSKNTAYLQMNSLKPEDTAVYYCAAFAYEEGVYRWDWGQGTLVTVSS
notes: VHH-Fc based on IgG2 Fc
100 nM FACS (MFI Ratio): 13.2

B17: IL1RL2-50 (VHH)
VHH: EVQLVESGGGLVQPGGSLRLSCAASGSIFSIDAMGWFRQAPGKERESVAIIKTDGSTYYADSVKGRFTISADNSKNTAYLQMNSLKPEDTAVYYCAHRLGYCSGGSCYWPNYFDYWGQGTLVTVSS
notes: VHH-Fc based on IgG2 Fc
100 nM FACS (MFI Ratio): 151

B18: IL1RL2-40 (VHH)
VHH: EVQLVESGGGLVQPGGSLRLSCAASGFTFSTYTMGWFRQAPGKEREFVAGIAWNGASGTLTSYADSVKGRFTISADNSKNTAYLQMNSLKPEDTAVYYCASAGRWGQGTLVTVSS
notes: VHH-Fc based on IgG2 Fc
100 nM FACS (MFI Ratio): 31

B19: IL1RL2-158 (antibody, V domains shown)
VH: EVQLLESGGGLVQPGGSLRLSCAASGFTFSSYFMSWVRQAPGKGLEWVSEISPSGSETYYADSVKGRFTISRDNSKNTLYLQMNSLRAEDTAVYYCARAYSSGWSLPFDYWGQGTLVTVSS
VL: DIQMTQSPSSLSASVGDRVTITCRASQGVRTSLAWYQQKPGKAPKLLIYATSTLQSGVPSRFSGSGSGTDFTLTISSLQPEDFATYYCAQGLRKPKTFGQGTKVEIK
notes: IgG2
100 nM FACS (MFI Ratio): 14.8

B20: IL1RL2-51 (VHH)
VHH: EVQLVESGGGLVQPGGSLRLSCAASGFTFSPSWMGWFRQAPGKEREWVSSIDYSAEDTYYADSVKGRFTISADNSKNTAYLQMNSLKPEDTAVYYCAAFDGYSGSDWGQGTLVTVSS
100 nM FACS (MFI Ratio): 9.68

B21: IL1RL2-28 (VHH)
VHH: EVQLVESGGGLVQPGGSLRLSCAASGFTLNDYAMGWFRQAPGKEREWVSSINWSGSTYYADSVKGRFTISADNSKNTAYLQMNSLKPEDTAVYYCAKAYSSSWPYFDYWGQGTLVTVSS
notes: VHH-Fc based on IgG2 Fc
100 nM FACS (MFI Ratio): 13.6

B22: IL1RL2-184 (antibody, V domains shown)
VH: EVQLLESGGGLVQPGGSLRLSCAASGFTFSDYDMSWVRQAPGKGLEWVSSISPSGGWTEYADSVKGRFTISRDNSKNTLYLQMNSLRAEDTAVYYCARHDYSNYPYFDYWGQGTLVTVSS
VL: DIQMTQSPSSLSASVGDRVTITCRASQTIGDYLNWYQQKPGKAPKLLIYTASNLQNGVPSRFSGSGSGTDFTLTISSLQPEDFATYYCQQGFSNPWTFGQGTKVEIK
notes: IgG2
100 nM FACS (MFI Ratio): 3.19

B23: IL1RL2-33 (VHH)
VHH: EVQLVESGGGLVQPGGSLRLSCAASGRSFNLYYMGWFRQAPGKEREFVASIFTDDGDSYYADSVKGRFTISADNSKNTAYLQMNSLKPEDTAVYYCAAGAGWAGTMTDYNWGQGTLVTVSS
notes: VHH-Fc based on IgG2 Fc
100 nM FACS (MFI Ratio): 15.2

B24: IL1RL2-26 (VHH)
VHH: EVQLVESGGGLVQPGGSLRLSCAASGSIFSIYDMGWFRQAPGKEREFVAAISGWSGGRTSYADSVKGRFTISADNSKNTAYLQMNSLKPEDTAVYYCAAIAYEEGVYRWDWGQGTLVTVSS
notes: VHH-Fc based on IgG2 Fc
100 nM FACS (MFI Ratio): 39.5

B25: IL1RL2-45 (VHH)
VHH: EVQLVESGGGLVQPGGSLRLSCAASGFDFSVSWMGWFRQAPGKEREFVGSIDWITTNIYYADSVKGRFTISADNSKNTAYLQMNSLKPEDTAVYYCAANIEAGTTKSQGWGQGTLVTVSS
notes: VHH-Fc based on IgG2 Fc
100 nM FACS (MFI Ratio): 6.82

B26: IL1RL2-178 (antibody, V domains shown)
VH: EVQLLESEGGLVQPGGSLRLSCAASGFTFSGYDMQWVRQAPGKGLEWVSSISSTGFKTYYADSVKGRFTISRDNSKNTLYLQMNSLRAEDTAVYYCAKAGPPFAGSRGNSFDYWGQGTLVTVSS
VL: DIQMTQSPSSLSASVGDRVTITCSGDNLRGYYASWYQQKPGKAPKLLIYGTSDLQSGVPSRFSGSGSGTDFTLTISSLQPEDFATYYCYSRDRSGNHLGMFGQGTKVEIK
notes: IgG2
100 nM FACS (MFI Ratio): 37
